Test results taken from patent US8703913B2, “Sensor” (Medical Research Council, priority 2008, dated 2014).

Assays:
[1] = Screening mutant/fluorophore combinations for a fluorescence response to ADP; conditions: ParM mutant/fluorophore combination
[2] = Fluorescence titration of labeled ParM with ADP; type: binding; conditions: Table 2, 20° C.; for ADP F+ADP/F−ADP: MDCC-ParM mutants; for Kd: fluorescence titration
Description: MDCC fluorescence was excited at 431 nm and detected at 474 nm, for the rhodamine-labeled proteins, excitation and emission wavelengths of 553 nm and 578 nm were used. […] The fraction of ParM bound to ADP was calculated from the fluorescence intensities.
The MDCC fluorescence was excited at 431 nm and emission was recorded at 474 nm. The equilibrium dissociation constants were determined by fitting a quadratic binding curve to the data.
(§1) The equilibrium dissociation constants were determined by fitting a quadratic binding curve to the data and are listed in Table Y. For the plot the experimental fluorescence intensities were normalized to the maximal fluorescence change obtained at saturation with ADP.
(§2) [formula] where [P] and [L] are the total concentrations of protein and ligand, respectively, Kd is the dissociation constant and Fmin and Fmax are the fluorescence intensities of the free and ligand bound protein.
(§3) Fluorescence spectra and titrations were measured in a Cary Eclipse spectrofluorimeter (Varian). Excitation and emission spectra were recorded with 5 nm slit width at emission and excitation wavelength of 576 nm and 553 nm, respectively. In titration experiments rhodamine fluorescence was measured at the same excitation/emission wavelength. Titration data were analyzed with a quadratic binding curve using the program Grafit 5.0 (7).

[3] = Fluorescence titration of labeled ParM with ATP; type: binding; conditions: Table 2; for ATP F+ATP/F−ATP: MDCC-ParM mutants; for ATP F+ATP/F−ATP / Kd: 20° C.; for Kd: highly purified ATP containing only 0.03% ADP
Description: The MDCC fluorescence was excited at 431 nm and emission was recorded at 474 nm. The equilibrium dissociation constants were determined by fitting a quadratic binding curve to the data. For the plot the experimental fluorescence intensities were converted to the nucleotide bound fraction of ParM.
as §1
ADP and ATP were purchased from Sigma at the highest purity available. The purity of the nucleotides was analysed by HPLC using a Partisphere SAX column, 125×4.5 mm (Whatman). Nucleotide separation was performed isocratic with 0.3 M (NH4)2HPO4 buffer pH 4.0, 25% MeOH, and the absorbance at 260 nm was monitored.
as §2, §3

Row | Molecule | Fluorescence change, ratio of the intensity in presence of 1 mM ADP to that in the absence of ADP [1] | ADP F+ADP/F−ADP [2] | Kd [2] | Kd ratio ATP/ADP [3] | ATP F+ATP/F−ATP [3] | Kd [3]
1 | IDCC-ParM (D63C): ParM D63C/C287A labeled with IDCC (conjugate, UniProt P11904 1-320, looked up, variant D63C C287A, IDCC label) Plasmid segregation protein …: MLVFIDDGSTNIKLQWQESDGTIKQHISPNSFKREWAVSFGDKKVFNYTLNGEQYSFDPISPCAVVTTNIAWQYSDVNVVAVHHALLTSGLPVSEVDIVCTLPLTEYYDRNNQPNTENIERKKANFRKKITLNGGDTFTIKDVKVMPESIPAGYEVLQELDELDSLLIIDLGGTTLDISQVMGKLSGISKIYGDSSLGVSLVTSAVKDALSLARTKGSSYLADDIIIHRKDNNYLKQRINDENKISIVTEAMNEALRKLEQRVLNTLNEFSGYTHVMVIGGGAELIADAVKKHTQIRDERFFKTNNSQYDLVNGMYLIGN | 0.53 | – | – | – | – | –
2 | IDCC-ParM (T215C): ParM T215C/C287A labeled with IDCC (conjugate, UniProt P11904 1-320, looked up, variant T215C C287A, IDCC label) Plasmid segregation protein …: MLVFIDDGSTNIKLQWQESDGTIKQHISPNSFKREWAVSFGDKKVFNYTLNGEQYSFDPISPDAVVTTNIAWQYSDVNVVAVHHALLTSGLPVSEVDIVCTLPLTEYYDRNNQPNTENIERKKANFRKKITLNGGDTFTIKDVKVMPESIPAGYEVLQELDELDSLLIIDLGGTTLDISQVMGKLSGISKIYGDSSLGVSLVTSAVKDALSLARCKGSSYLADDIIIHRKDNNYLKQRINDENKISIVTEAMNEALRKLEQRVLNTLNEFSGYTHVMVIGGGAELIADAVKKHTQIRDERFFKTNNSQYDLVNGMYLIGN | 0.74 | – | – | – | – | –
3 | T175F: MDCC-ParM (His6/I27C/T175F/C287A) (conjugate, UniProt P11904 1-320, looked up, variant I27C T175F C287A, MDCC label; His6 tag) Plasmid segregation protein …: MLVFIDDGSTNIKLQWQESDGTIKQHCSPNSFKREWAVSFGDKKVFNYTLNGEQYSFDPISPDAVVTTNIAWQYSDVNVVAVHHALLTSGLPVSEVDIVCTLPLTEYYDRNNQPNTENIERKKANFRKKITLNGGDTFTIKDVKVMPESIPAGYEVLQELDELDSLLIIDLGGTFLDISQVMGKLSGISKIYGDSSLGVSLVTSAVKDALSLARTKGSSYLADDIIIHRKDNNYLKQRINDENKISIVTEAMNEALRKLEQRVLNTLNEFSGYTHVMVIGGGAELIADAVKKHTQIRDERFFKTNNSQYDLVNGMYLIGN | – | 2.5 | 4.7 µM | 29 | 2.5 | 137 µM
4 | CPM-ParM (T215C): ParM T215C/C287A labeled with CPM (conjugate, UniProt P11904 1-320, looked up, variant T215C C287A, CPM label) Plasmid segregation protein …: MLVFIDDGSTNIKLQWQESDGTIKQHISPNSFKREWAVSFGDKKVFNYTLNGEQYSFDPISPDAVVTTNIAWQYSDVNVVAVHHALLTSGLPVSEVDIVCTLPLTEYYDRNNQPNTENIERKKANFRKKITLNGGDTFTIKDVKVMPESIPAGYEVLQELDELDSLLIIDLGGTTLDISQVMGKLSGISKIYGDSSLGVSLVTSAVKDALSLARCKGSSYLADDIIIHRKDNNYLKQRINDENKISIVTEAMNEALRKLEQRVLNTLNEFSGYTHVMVIGGGAELIADAVKKHTQIRDERFFKTNNSQYDLVNGMYLIGN | 0.76 | – | – | – | – | –
5 | T175H: MDCC-ParM (His6/I27C/T175H/C287A) (conjugate, UniProt P11904 1-320, looked up, variant I27C T175H C287A, MDCC label; His6 tag) Plasmid segregation protein …: MLVFIDDGSTNIKLQWQESDGTIKQHCSPNSFKREWAVSFGDKKVFNYTLNGEQYSFDPISPDAVVTTNIAWQYSDVNVVAVHHALLTSGLPVSEVDIVCTLPLTEYYDRNNQPNTENIERKKANFRKKITLNGGDTFTIKDVKVMPESIPAGYEVLQELDELDSLLIIDLGGTHLDISQVMGKLSGISKIYGDSSLGVSLVTSAVKDALSLARTKGSSYLADDIIIHRKDNNYLKQRINDENKISIVTEAMNEALRKLEQRVLNTLNEFSGYTHVMVIGGGAELIADAVKKHTQIRDERFFKTNNSQYDLVNGMYLIGN | – | 3.2 | 0.4 µM | 0.4 | 3.9 | 0.16 µM
6 | CPM-ParM (I27C): ParM I27C/C287A labeled with CPM (conjugate, UniProt P11904 1-320, looked up, variant I27C C287A, CPM label) Plasmid segregation protein …: MLVFIDDGSTNIKLQWQESDGTIKQHCSPNSFKREWAVSFGDKKVFNYTLNGEQYSFDPISPDAVVTTNIAWQYSDVNVVAVHHALLTSGLPVSEVDIVCTLPLTEYYDRNNQPNTENIERKKANFRKKITLNGGDTFTIKDVKVMPESIPAGYEVLQELDELDSLLIIDLGGTTLDISQVMGKLSGISKIYGDSSLGVSLVTSAVKDALSLARTKGSSYLADDIIIHRKDNNYLKQRINDENKISIVTEAMNEALRKLEQRVLNTLNEFSGYTHVMVIGGGAELIADAVKKHTQIRDERFFKTNNSQYDLVNGMYLIGN | 0.62 | – | – | – | – | –
7 | T174A: MDCC-ParM (His6/I27C/T174A/C287A) (conjugate, UniProt P11904 1-320, looked up, variant I27C T174A C287A, MDCC label; His6 tag) Plasmid segregation protein …: MLVFIDDGSTNIKLQWQESDGTIKQHCSPNSFKREWAVSFGDKKVFNYTLNGEQYSFDPISPDAVVTTNIAWQYSDVNVVAVHHALLTSGLPVSEVDIVCTLPLTEYYDRNNQPNTENIERKKANFRKKITLNGGDTFTIKDVKVMPESIPAGYEVLQELDELDSLLIIDLGGATLDISQVMGKLSGISKIYGDSSLGVSLVTSAVKDALSLARTKGSSYLADDIIIHRKDNNYLKQRINDENKISIVTEAMNEALRKLEQRVLNTLNEFSGYTHVMVIGGGAELIADAVKKHTQIRDERFFKTNNSQYDLVNGMYLIGN | – | 2.9 | 0.39 µM | 164 | 3.1 | 64 µM
8 | S9Q: MDCC-ParM (His6/S9Q/I27C/C287A) (conjugate, UniProt P11904 1-320, looked up, variant S9Q I27C C287A, MDCC label; His6 tag) Plasmid segregation protein …: MLVFIDDGQTNIKLQWQESDGTIKQHCSPNSFKREWAVSFGDKKVFNYTLNGEQYSFDPISPDAVVTTNIAWQYSDVNVVAVHHALLTSGLPVSEVDIVCTLPLTEYYDRNNQPNTENIERKKANFRKKITLNGGDTFTIKDVKVMPESIPAGYEVLQELDELDSLLIIDLGGTTLDISQVMGKLSGISKIYGDSSLGVSLVTSAVKDALSLARTKGSSYLADDIIIHRKDNNYLKQRINDENKISIVTEAMNEALRKLEQRVLNTLNEFSGYTHVMVIGGGAELIADAVKKHTQIRDERFFKTNNSQYDLVNGMYLIGN | – | 3.2 | 1.66 µM | 40 | 2.8 | 66 µM
9 | S9A: MDCC-ParM (His6/S9A/I27C/C287A) (conjugate, UniProt P11904 1-320, looked up, variant S9A I27C C287A, MDCC label; His6 tag) Plasmid segregation protein …: MLVFIDDGATNIKLQWQESDGTIKQHCSPNSFKREWAVSFGDKKVFNYTLNGEQYSFDPISPDAVVTTNIAWQYSDVNVVAVHHALLTSGLPVSEVDIVCTLPLTEYYDRNNQPNTENIERKKANFRKKITLNGGDTFTIKDVKVMPESIPAGYEVLQELDELDSLLIIDLGGTTLDISQVMGKLSGISKIYGDSSLGVSLVTSAVKDALSLARTKGSSYLADDIIIHRKDNNYLKQRINDENKISIVTEAMNEALRKLEQRVLNTLNEFSGYTHVMVIGGGAELIADAVKKHTQIRDERFFKTNNSQYDLVNGMYLIGN | – | 3.1 | 2.5 µM | 39 | 2.9 | 98 µM
10 | CPM-ParM (S204C): ParM S204C/C287A labeled with CPM (conjugate, UniProt P11904 1-320, looked up, variant S204C C287A, CPM label) Plasmid segregation protein …: MLVFIDDGSTNIKLQWQESDGTIKQHISPNSFKREWAVSFGDKKVFNYTLNGEQYSFDPISPDAVVTTNIAWQYSDVNVVAVHHALLTSGLPVSEVDIVCTLPLTEYYDRNNQPNTENIERKKANFRKKITLNGGDTFTIKDVKVMPESIPAGYEVLQELDELDSLLIIDLGGTTLDISQVMGKLSGISKIYGDSSLGVSLVTCAVKDALSLARTKGSSYLADDIIIHRKDNNYLKQRINDENKISIVTEAMNEALRKLEQRVLNTLNEFSGYTHVMVIGGGAELIADAVKKHTQIRDERFFKTNNSQYDLVNGMYLIGN | 0.62 | – | – | – | – | –
11 | IDCC-ParM (S204C): ParM S204C/C287A labeled with IDCC (conjugate, UniProt P11904 1-320, looked up, variant S204C C287A, IDCC label) Plasmid segregation protein …: MLVFIDDGSTNIKLQWQESDGTIKQHISPNSFKREWAVSFGDKKVFNYTLNGEQYSFDPISPDAVVTTNIAWQYSDVNVVAVHHALLTSGLPVSEVDIVCTLPLTEYYDRNNQPNTENIERKKANFRKKITLNGGDTFTIKDVKVMPESIPAGYEVLQELDELDSLLIIDLGGTTLDISQVMGKLSGISKIYGDSSLGVSLVTCAVKDALSLARTKGSSYLADDIIIHRKDNNYLKQRINDENKISIVTEAMNEALRKLEQRVLNTLNEFSGYTHVMVIGGGAELIADAVKKHTQIRDERFFKTNNSQYDLVNGMYLIGN | 0.80 | – | – | – | – | –
